The values that follow come from PMC3720892, “Functional Analysis of the Superfamily 1 DNA Helicases Encoded by Mycoplasma pneumoniae and Mycoplasma genitalium”.

Data set [1] has as its target T1, PcrA Mge (Mycoplasma genitalium strain G37, UniProt P47486 1-703).
T1 sequence: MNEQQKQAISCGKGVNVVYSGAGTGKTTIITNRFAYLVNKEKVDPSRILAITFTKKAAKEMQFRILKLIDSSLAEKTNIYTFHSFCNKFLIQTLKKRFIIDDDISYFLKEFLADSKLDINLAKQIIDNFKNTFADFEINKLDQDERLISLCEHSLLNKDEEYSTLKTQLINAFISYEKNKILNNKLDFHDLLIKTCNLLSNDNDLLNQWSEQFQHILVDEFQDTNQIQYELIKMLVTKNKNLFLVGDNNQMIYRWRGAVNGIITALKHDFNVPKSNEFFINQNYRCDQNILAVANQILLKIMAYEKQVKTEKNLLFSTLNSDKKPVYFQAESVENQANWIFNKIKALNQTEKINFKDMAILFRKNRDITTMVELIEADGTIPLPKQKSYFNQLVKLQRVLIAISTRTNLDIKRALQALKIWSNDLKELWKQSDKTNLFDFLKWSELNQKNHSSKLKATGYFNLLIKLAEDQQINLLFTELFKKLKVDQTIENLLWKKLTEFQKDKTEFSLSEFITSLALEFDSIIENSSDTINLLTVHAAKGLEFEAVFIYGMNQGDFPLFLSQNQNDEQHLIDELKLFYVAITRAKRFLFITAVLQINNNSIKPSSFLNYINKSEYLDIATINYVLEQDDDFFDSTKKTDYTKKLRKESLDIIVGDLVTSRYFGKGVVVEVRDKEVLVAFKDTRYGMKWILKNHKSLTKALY
Nature of the data set: EMSA; 22-200 nM protein; 20 mM Tris-HCl pH 7.5, 1 mM DTT, 50 ng/ul BSA, 8 nM DNA, 15 min at room temperature, no Mg2+ or ATP listed; 6% PAGE in 1x TBE. The settings on record: protein: recombinant; tags: N-terminal MBP; label: 5' 6-FAM. (Mobility shift assays separate free from complexed probe on a gel.)

The target in data set [2] is T2, PcrA Mpn (Mycoplasma pneumoniae strain M129, UniProt P75437 1-715).
T2 sequence: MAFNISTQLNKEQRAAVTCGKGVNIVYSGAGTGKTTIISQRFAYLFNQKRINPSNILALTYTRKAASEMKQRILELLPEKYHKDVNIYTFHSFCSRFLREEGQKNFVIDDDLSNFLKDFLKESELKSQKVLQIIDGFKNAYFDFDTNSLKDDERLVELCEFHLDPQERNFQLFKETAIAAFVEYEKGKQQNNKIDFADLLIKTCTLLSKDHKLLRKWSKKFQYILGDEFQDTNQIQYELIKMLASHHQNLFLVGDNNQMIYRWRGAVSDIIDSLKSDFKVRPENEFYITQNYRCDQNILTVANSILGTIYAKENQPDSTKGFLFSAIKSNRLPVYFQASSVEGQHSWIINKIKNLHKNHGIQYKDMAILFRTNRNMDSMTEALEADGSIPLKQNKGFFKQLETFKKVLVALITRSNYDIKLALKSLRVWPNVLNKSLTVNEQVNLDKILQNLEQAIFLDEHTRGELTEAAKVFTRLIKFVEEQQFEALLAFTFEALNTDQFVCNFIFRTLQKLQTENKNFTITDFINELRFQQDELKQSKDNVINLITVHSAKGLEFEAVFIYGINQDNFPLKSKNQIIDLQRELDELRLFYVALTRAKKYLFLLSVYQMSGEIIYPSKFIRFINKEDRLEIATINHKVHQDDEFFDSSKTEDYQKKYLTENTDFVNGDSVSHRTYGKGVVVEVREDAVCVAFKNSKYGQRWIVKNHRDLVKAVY
Described as above. The settings on record: protein: recombinant; tags: N-terminal MBP; label: 5' 6-FAM.

A further data set concerns the target T3, PcrAs M129 (Mycoplasma pneumoniae strain M129, UniProt P75438 1-529).
T3 sequence: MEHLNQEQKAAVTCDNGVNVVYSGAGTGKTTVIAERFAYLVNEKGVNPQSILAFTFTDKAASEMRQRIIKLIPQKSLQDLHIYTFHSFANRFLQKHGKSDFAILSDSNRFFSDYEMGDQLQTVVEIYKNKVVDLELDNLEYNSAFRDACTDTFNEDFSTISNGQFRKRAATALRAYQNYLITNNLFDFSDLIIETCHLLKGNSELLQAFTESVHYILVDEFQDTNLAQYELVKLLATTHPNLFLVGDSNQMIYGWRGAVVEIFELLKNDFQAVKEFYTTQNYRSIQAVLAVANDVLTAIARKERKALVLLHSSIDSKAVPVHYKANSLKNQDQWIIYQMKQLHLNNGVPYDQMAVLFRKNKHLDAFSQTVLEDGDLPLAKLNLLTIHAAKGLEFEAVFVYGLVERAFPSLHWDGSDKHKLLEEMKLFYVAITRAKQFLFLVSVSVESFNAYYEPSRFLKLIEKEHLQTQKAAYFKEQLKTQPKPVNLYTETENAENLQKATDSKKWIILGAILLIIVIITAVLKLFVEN
As to the kind of experiment: EMSA; up to 200 nM protein; 20 mM Tris-HCl pH 7.5, 1 mM DTT, 50 ng/ul BSA, 8 nM DNA, 15 min at room temperature, no Mg2+ or ATP listed; 6% PAGE in 1x TBE. The conditions noted are these: protein: recombinant, tags: N-terminal MBP.

The target of data set [3] is T1, PcrA Mge. As to the kind of experiment: EMSA; 22-200 nM protein; most complexes did not enter gel; 20 mM Tris-HCl pH 7.5, 1 mM DTT, 50 ng/ul BSA, 8 nM DNA, 15 min at room temperature, no Mg2+ or ATP listed; 6% PAGE in 1x TBE. The settings on record: protein: recombinant; tags: N-terminal MBP; label: 5' 6-FAM on one strand; 3' overhang 24 nt.
Data set [4] addresses T2, PcrA Mpn. Described as above. The settings on record: protein: recombinant; tags: N-terminal MBP; label: 5' 6-FAM on one strand; 3' overhang 24 nt.
Data set [5] addresses T1, PcrA Mge. As to the kind of experiment: EMSA; 22-200 nM protein; discrete complex IV; 20 mM Tris-HCl pH 7.5, 1 mM DTT, 50 ng/ul BSA, 8 nM DNA, 15 min at room temperature, no Mg2+ or ATP listed; 6% PAGE in 1x TBE. The conditions noted are these: protein: recombinant; tags: N-terminal MBP; label: 5' 6-FAM on one strand; 5' overhang 24 nt.
Data set [6] has as its target T2, PcrA Mpn. As to the kind of experiment: EMSA; 22-200 nM protein; discrete complex III; 20 mM Tris-HCl pH 7.5, 1 mM DTT, 50 ng/ul BSA, 8 nM DNA, 15 min at room temperature, no Mg2+ or ATP listed; 6% PAGE in 1x TBE. The conditions noted are these: protein: recombinant; tags: N-terminal MBP; label: 5' 6-FAM on one strand; 5' overhang 24 nt.

B1: oligonucleotide 1 (ssDNA)
DNA: CAAAGTAAGAGCTTCTCGAGCTGCGCAAGGATAGGTCGAATTTTCTCATTTT
Consider B1, for which the binding result with PcrA Mge [1] is “binds”; with PcrA Mpn [2], “binds”; with PcrAs M129 (label: 5' 6-FAM) it was “no binding”.

B2: substrate a (dsDNA)
DNA 1: CAAAGTAAGAGCTTCTCGAGCTGCGCAAGGATAGGTCGAATTTTCTCATTTT
DNA 2: AAAATGAGAAAATTCGACCTATCCTTGCGCAGCTCGAGAAGCTCTTACTTTGATCGGATCCATGAATGAACAACAA
As for B2, the binding result is recorded as “no binding” with PcrAs M129 (label: 5' 6-FAM on one strand, 3' overhang 24 nt); “binds” with PcrA Mge [3]; “binds” in the data set with PcrA Mpn [4].

B3: substrate c (dsDNA)
DNA 1: CAAAGTAAGAGCTTCTCGAGCTGCGCAAGGATAGGTCGAATTTTCTCATTTT
DNA 2: AAAATGAGAAAATTCGACCTATCCTTGCGCAGCTCGAGAAGCTCTTACTTTG
For B3, in the data set with PcrAs M129 (label: 5' 6-FAM on one strand, blunt), the binding result is “no binding”.

B4: substrate b (dsDNA)
DNA 1: CAAAGTAAGAGCTTCTCGAGCTGCGCAAGGATAGGTCGAATTTTCTCATTTT
DNA 2: ATCGGATCCATGAATGAACAACAAAAAATGAGAAAATTCGACCTATCCTTGCGCAGCTCGAGAAGCTCTTACTTTG
Regarding B4, the binding result was “no binding” with PcrAs M129 (label: 5' 6-FAM on one strand, 5' overhang 24 nt); “binds” with PcrA Mge [5]; “binds” in the data set with PcrA Mpn [6].
